This note sets out measurements from patent US20240301076A1.

For this assay, the target named is human CXCR2 (human) (UniProt P25025). Description: cell-based or functional assay.
human CXCR2 (human), sequence (P25025 whole entry): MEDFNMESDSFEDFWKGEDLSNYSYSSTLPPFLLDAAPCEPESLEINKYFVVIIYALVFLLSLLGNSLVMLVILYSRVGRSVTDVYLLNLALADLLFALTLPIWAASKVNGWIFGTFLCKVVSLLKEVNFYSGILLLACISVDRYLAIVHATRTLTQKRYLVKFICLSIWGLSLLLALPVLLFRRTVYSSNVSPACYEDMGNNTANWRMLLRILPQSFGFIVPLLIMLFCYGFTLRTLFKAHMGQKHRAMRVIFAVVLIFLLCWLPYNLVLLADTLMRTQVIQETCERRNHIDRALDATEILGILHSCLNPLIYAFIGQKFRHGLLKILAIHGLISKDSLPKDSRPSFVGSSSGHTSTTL

human CXCL6, sequence (P80162 38-114 limits assumed): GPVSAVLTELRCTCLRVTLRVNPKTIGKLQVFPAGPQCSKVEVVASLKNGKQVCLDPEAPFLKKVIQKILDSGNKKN
human CXCL3, sequence (P19876 35-107 limits assumed): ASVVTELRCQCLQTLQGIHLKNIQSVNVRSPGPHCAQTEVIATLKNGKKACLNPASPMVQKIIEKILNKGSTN
human CXCL2, sequence (P19875 35-107 limits assumed): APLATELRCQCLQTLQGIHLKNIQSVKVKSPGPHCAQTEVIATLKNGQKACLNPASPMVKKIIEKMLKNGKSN
human CXCL1, sequence (P09341 35-107 limits assumed): as the sequence (P19875 35-107 limits assumed) above, with P2S, L3V, L20P, K27N, Q48R, M58I, K68N, N69S, G70D counted along it
human CXCL5, sequence (P42830 37-114 limits assumed): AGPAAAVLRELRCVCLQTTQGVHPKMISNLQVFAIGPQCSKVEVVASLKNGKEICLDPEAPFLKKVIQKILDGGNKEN
human CXCL8, sequence (P10145 28-99 limits assumed): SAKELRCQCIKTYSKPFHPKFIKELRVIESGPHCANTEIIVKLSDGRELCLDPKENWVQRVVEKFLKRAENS

As for “Antagonist 3 (anti-CXCR2 antibody clone 48311, R&D systems MAB331-500)”, the CXCL1 IC50, calcium flux came out at 30.7 nM; the CXCL1 IC50, β-arrestin recruitment amounted to 14.8 nM; the CXCL1 Maximal Inhibition %, calcium flux amounted to 37%; the CXCL1 Maximal Inhibition %, β-arrestin recruitment stood at 85%. Moreover, the CXCL5 IC50, β-arrestin recruitment is 8.12 nM; the CXCL5 Maximal Inhibition %, β-arrestin recruitment came to 96%; the CXCL8 Maximal Inhibition %, calcium flux was 18%; the CXCL8 Maximal Inhibition %, β-arrestin recruitment came to 82%.
Take “Antagonist 4 (anti-CXCR2 antibody clone 6C6, BD Biosciences 555932)”: the CXCL1 IC50, calcium flux came to 1.29 nM; the CXCL1 IC50, β-arrestin recruitment came to 1.47 nM; the CXCL1 Maximal Inhibition %, calcium flux was found to be 93%; the CXCL1 Maximal Inhibition %, β-arrestin recruitment is 96%. Further, the CXCL5 IC50, β-arrestin recruitment was determined as 0.75 nM; the CXCL5 Maximal Inhibition %, β-arrestin recruitment turned out to be 99%; the CXCL8 IC50, β-arrestin recruitment was 1.01 nM; the CXCL8 Maximal Inhibition %, calcium flux was 1%. Besides, the CXCL8 Maximal Inhibition %, β-arrestin recruitment was found to be 94%.
With “human CXCL1 (from UniProt P09341 35-107) (ligand)”, the EC50 mean, Tango assay was determined as 2.3 nM and the EC50 mean, calcium flux assay is 2.62 nM.
On to “human CXCL2 (from UniProt P19875 35-107) (ligand)”, for which the EC50 mean, Tango assay is 33.3 nM and the EC50 mean, calcium flux assay is 37 nM.
On the same counts, the results for “human CXCL3 (from UniProt P19876 35-107) (ligand)” are 11.9 nM and 12.2 nM.
As to “human CXCL5 (from UniProt P42830 37-114) (ligand)”, the EC50 mean, Tango assay was 97.7 nM and the EC50 mean, calcium flux assay amounted to 39.2 nM.
Turning to “human CXCL6 (from UniProt P80162 38-114) (ligand)”, the EC50 mean, Tango assay was 9.4 nM and the EC50 mean, calcium flux assay amounted to 28.9 nM.
On the same counts, the results for “human CXCL8 (from UniProt P10145 28-99) (ligand)” are 2.2 nM and 3.2 nM.
